In this assay the target is tumor necrosis factor-alpha (TNF-α) (UniProt P01375).
Chain of UniProt P01375 (P01375 77-233): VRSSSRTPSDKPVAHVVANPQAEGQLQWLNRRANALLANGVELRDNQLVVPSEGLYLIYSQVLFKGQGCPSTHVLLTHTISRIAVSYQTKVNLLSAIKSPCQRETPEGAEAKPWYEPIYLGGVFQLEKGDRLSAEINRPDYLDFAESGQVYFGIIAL

In turn, “anti-TNF-α antibody (ENBREL), a chimeric molecule combining the ligand-binding domain of the TNF-receptor 2 and the Fc-domain of human IgG1 (Fc fusion)” showed an apoptosis (TUNEL, DNA strand breaks) of uninfected monocytes induced by added TNF-α, with anti-TNF-α mAb (ENBREL, 1 µg/ml) of 50%.

For the origin of these results see article PMC3547953.
